B1: anti-CCR8 mAb 1-20 (antibody, human IgG1, kappa)
heavy: not shown
light: DIVMTQAAPSLSVTPGESASISCTSSKSLLHSNGNTYLYWFLQKPGQSPQLLIYRMSNLASGVPDRFSGSGSGTAFTLKISRVEAEDVGVYYCMQHREYPFTFGSGTKLEIKRTVAAPSVFIFPPSDEQLKSGTASVVCLLNNFYPREAKVQWKVDNALQSGNSQESVTEQDSKDSTYSLSSTLTLSKADYEKHKVYACEVTHQGLSSPVTKSFNRGEC
notes: Humanized mAb, human IgG1 / kappa
B2: anti-CCR8 mAb 1-22 (antibody, human IgG1, kappa, V domains shown)
VH: EVQLLESGGGLVQPGGSLRLSCAASGFTFNAYAMNWVRQAPGKGLEWVARIRSKSNDYATYYGDSVKGRFTISRDNSKNTLYLQMNSLRAEDTAVYYCVRGREAYYRYDGGYYAMDVWGQGTTVTVSS
VL: DIVMTQSPLSLPVTPGEPASISCRSSKSLLHSNGNTYLYWFLQKPGQSPQLLIYRVSNLASGVPDRFSGSGSGTDFTLKISRVEAEDVGVYYCMQHREYPFTFGQGTKLEIKR
notes: as for B1
B3: anti-CCR8 mAb 1-25 (antibody, human IgG1, kappa, V domains shown)
VH: QVQLVESGGGVVQPGRSLRLSCAASGFTFSNYRMHWVRQAPGKGLEWIAVIKVKSDNYGANYADSVKGRFTISRDNSKNTLYLQMNSLRAEDTAVYYCSSPTYPGSSGFAYWGQGTLVTVSS
VL: DIQMTQSPSSLSASVGDRVTITCRASQDISNYLNWYQQKPDGTVKLLIYYTSRLHTGVPSRFSGSGSGTDYTLTISNLQQEDIATYFCQQGNKFPPTFGGGTKVEINR
notes: as for B1

Columns and labels:
human CCR8 [1] = target: T1, human CCR8 (human, UniProt P51685 1-355); assay: cell-based or functional assay
human CCR8 [2] = target: T1, human CCR8; assay: cell-based or functional assay; remark: listed apart in the source
pm1 = target: T2, pm1 (sulfated tyrosine(s) among Y15, Y16, Y17; which ones is not told (the underlining of Table 1 is lost in the text)); assay: ELISA on coated peptide [cont.]
T2 construct: also called sulfated CCR8 N-terminal peptide pm1
Summary of the method: (§1)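 Binding signal was the OD following TMB colour development for 15 min. The mAbs (1 μg/mL and a 1/10 dilution) were incubated 90 min at room temperature on wells coated with 500 ng/ml peptide.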

pm3 = target: T3, pm3 (Y17 sulfated; Y15 and Y16 not sulfated); assay: ELISA on coated peptide [cont.]
T3 construct: also called sulfated CCR8 N-terminal peptide pm3
Summary of the method: as §1

pm4 = target: T4, pm4 (sulfated tyrosine(s) among Y15, Y16, Y17; which ones is not told (the underlining of Table 1 is lost in the text)); assay: ELISA on coated peptide [cont.]
T4 construct: also called sulfated CCR8 N-terminal peptide pm4
Summary of the method: as §1

pm5 = target: T5, pm5 (Y15 and Y17 sulfated; Y16 not sulfated); assay: ELISA on coated peptide [cont.]
T5 construct: also called sulfated CCR8 N-terminal peptide pm5
Summary of the method: as §1

pm6 = target: T6, pm6 (Y16 and Y17 sulfated; Y15 not sulfated); assay: ELISA on coated peptide [cont.]
T6 construct: also called sulfated CCR8 N-terminal peptide pm6
Summary of the method: as §1

pm8 = target: T7, pm8 (Y15, Y16 and Y17 sulfated); assay: ELISA on coated peptide [cont.]
T7 construct: also called sulfated CCR8 N-terminal peptide pm8
Summary of the method: as §1

[3] = target: T8, human CCR8 with a SNAP-tag at the N-terminus (human, UniProt P51685 1-355, SNAP-tag labelled covalently with Lumi4-Terbium); assay: cell-based or functional assay
[4] = target: T8, human CCR8 with a SNAP-tag at the …; assay: HTRF Tag-lite, inhibition of hCCL1-AF647 binding to SNAP-hCCR8 on HEK-293 cells
Experimental: The inhibition of CCL1 binding to hCCR8 was evaluated with the Tag-Lite® technology from Cisbio (Revvity). Human CCR8 is engineered with a SNAP-tag at the N-terminus of the GPCR. hCCR8 SNAP-tag is transiently transfected on HEK-293 cell line using FuGene® (Promega, Madison, WI, USA). 48 hours after transfection, cells are labeled with the substrate Lumi4-Terbium® (Cisbio, Codolet, France) which covalently reacts with the SNAP-tag, for 1 h at 37° C. Thawed or freshly labeled cells are plated in a 384 low volume white plate (GREINER Bio-One, Courtaboeuf, France) (10000 cells/well/10 μl). […] The Kd was previously obtained in a saturation binding assay on the same cells. […] The plate is next incubated at 21° C. for 2 h. Detection of HTRF signal is performed on the multiplate reader EnVision (PerkinElmer, Waltham, MA, USA). The HTRF (665/620) ratio is calculated by EnVision software, the data exported are considered as the total binding. The specific binding is calculated then by subtracting the non-specific signal from the total binding. The Ki and IC₅₀ are calculated using the “One site-Fit Ki” and “One site-FitlogIC50” from GraphPad Prism 9 (Graphpad Software, San Diego, CA, USA), respectively.

human CCR8 [5] = target: T1, human CCR8; assay: flow cytometry, hCCR8-transfected CHO-K1 cells
Experimental: The same staining protocol was applied on human CCR8 transfected CHO cell line versus wild type CHO cell line, cutaneous T cell lymphoma HUT78 cell line and human activated T cell model.
Briefly, 1.10⁵ cells per well in a 96 well plate were incubated with a dilution of unconjugated anti-CCR8 mAb at 10 μg/mL then diluted at 1/3.33, 4 dilution points (during 30 min at 4° C.). […] Subsequently, cells are centrifuged (5 min at 400 g) and bound antibody is detected with F(ab′)2-Goat anti-Mouse IgG (H+L) Cross-Adsorbed Secondary Antibody, Alexa Fluor 488 (dilution 1/500) (Invitrogen by Thermofisher Scientific, Illkirch-Graffenstaden, France) or with F(ab′)₂-Goat anti-Human IgG Fc Secondary Antibody, PE (Invitrogen by Thermofisher Scientific, Illkirch-Graffenstaden, France) (dilution 1/1000) at 4° C. for 30 min. […] Bound detection antibody is quantified on a MacsQuant16 (Miltenyi, Gladbach, Germany) (B1 or B2 channel, 5000 events per acquisition). […] EC50 values were determined via nonlinear fit “log (agonist) vs.response—Variable slope (four parameters)” function of Graphpad prism. EC50 values were not constantly determined in the same experiments.

T3 sequence (peptide, as listed by the source): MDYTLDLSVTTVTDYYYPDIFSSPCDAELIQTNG
T4 sequence (peptide, as listed by the source): as above
T2 sequence (peptide, as listed by the source): as above
T6 sequence (peptide, as listed by the source): as above
T5 sequence (peptide, as listed by the source): as above
T7 sequence (peptide, as listed by the source): as above

| Binder | extrapolated top plateau of hCCL1 curve with 5 µg/mL mAb, protocol #3 (human CCR8 [1]) | IC50 (read off the curve), inhibition of hCCL1 induced Gi2 signaling, No Wash-out (human CCR8 [2]) | IC50 (read off the curve), inhibition of hCCL1 induced Gi2 signaling, Wash-out (6 h) (human CCR8 [2]) | binding result (pm1) | binding result (pm3) | binding result (pm4) | binding result (pm5) | binding result (pm6) | binding result (pm8) | % hCCR8 internalization with CCL1 300 nM, mAb 1 µg/ml (HTRF) [3] | % hCCR8 internalization with CCL1 300 nM, mAb 10 µg/ml (HTRF) [3] | IC50 [4] | EC50 (human CCR8 [5]) |
| --- | --- | --- | --- | --- | --- | --- | --- | --- | --- | --- | --- | --- | --- |
| B1 | 517000 % of hCCL1 (100 nM) | ~0.02 µg/mL | ~0.06 µg/mL | binds | binds | binds | binds | binds | binds |  |  |  |  |
| B2 | 76400 % of hCCL1 (100 nM) |  |  | binds | binds | binds | binds | binds | binds | 139% | 52% | 0.1 to 1 nM |  |
| B3 |  |  |  |  |  |  |  |  |  |  |  |  | 0.1 nM |

Source: patent US20260132208A1 (DOMAIN THERAPEUTICS, published 2026)
